From patent US20070225226A1, “C-REACTIVE PROTEIN APHERESIS” (The American National Red Cross, priority 2006, published 2007)
Like-named read-outs stand apart in the source and are kept apart here. Non-standard residues stand in square brackets, D forms with d. No end group written: not given here. 2Nal = N[C@@H](Cc1ccc2ccccc2c1)C(=O)O

How the values were obtained:
[1] = molecular target: T1, CRP (Homo sapiens, UniProt P02741); experiment: Equilibrium capacity for binding CRP spiked into plasma or citrate buffer (unbound CRP measured by ELISA); settings: 80 μl resin, two hours at room temperature
T1 sequence (P02741 19-224): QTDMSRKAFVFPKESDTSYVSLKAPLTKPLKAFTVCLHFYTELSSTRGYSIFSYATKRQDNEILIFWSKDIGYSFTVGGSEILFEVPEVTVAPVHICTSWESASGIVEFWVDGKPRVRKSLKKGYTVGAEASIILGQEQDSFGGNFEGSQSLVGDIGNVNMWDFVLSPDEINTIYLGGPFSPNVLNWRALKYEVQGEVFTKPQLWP
Experimental: The equilibrium capacity of wZQKNH (SEQ ID NO: 7) for binding CRP was determined with CRP spiked into 200 μl of plasma or citrate buffer. 80 μl of wZQKNH resin was mixed with the spiked materials and allowed to incubate for two hours at room temperature. The supernatant was collected and CRP remaining in the supernatant (unbound fraction) was measured by ELISA. The apparent dissociation constant (the reciprocal of the association constant) for CRP bound from buffer was 12.8×10^−9 M whereas the apparent dissociation constant for CRP bound from plasma was 370×10^−9M, indicating a level of interference in plasma, possibly arising from CRP associating with other plasma proteins which may alter its dissociation constant.

[2] = molecular target: T1, CRP; experiment: Ability of resins to bind endogenous CRP from serum (LDS gel / Western blot of supernatant and eluate); type: binding; parameters: from tissue; host or cells: serum; settings: two hours at room temperature, FIG. 1; for CRP detected in the supernatant after incubation with resin: 90 μl resin, 300 μl serum containing endogenous CRP; for binding of endogenous CRP by the resin: serum containing endogenous CRP
Experimental: Several of the sequences identified in Example 2 were synthesized at gram scale to assay their ability to bind CRP. 90 μl of resin of ligands eSFAZZ (SEQ ID NO: 3), hGYIGL (SEQ ID NO: 8), vLRPWK (SEQ ID NO: 4), wZQKNH (SEQ ID NO: 7) and kZPDLH (SEQ ID NO: 6) (Z denotes 2′naphthylananine, small letters denote D amino acids, and capital letters denote L amino acids) were incubated with 300 μl of serum containing endogenous CRP, for two hours at room temperature. The supernatant was collected and the protein bound to the beads was eluted by incubation at 70° C. for ten minutes in 2×LDS sample buffer (Invitrogen). 10 μl of incubation supernatant or resin eluate was loaded per lane in an LDS gel and the proteins transferred to a nitrocellulose membrane. CRP was detected on the membrane using mouse anti-human CRP monoclonal antibody CRP-8 (Cat#C-1688, Lot# 094K4803), C=9.1 mg/ml (Sigma-Aldrich, St. Louis, Mo.) and affinity purified phosphatase labeled goat anti mouse IgG(□) human serum adsorbed (Cat#075-1802, Lot# XE084) (KPL, Gaithersburg, Md., USA).
This was confirmed by the detection of CRP in the eluates from these resins. The opposite is true for the remaining resins. […] It should be noted that all three of these ligands have a positively charged amino acid at the carboxy terminus (K or H) while none of the negative resins have the positively charged residue.

[3] = molecular target: Human CRP (C-reactive protein) (human) (UniProt P02741); experiment: Equilibrium binding of CRP spiked into plasma to 80 ul wZQKNH resin, 2 h at room temperature; unbound CRP measured by ELISA; apparent KD
[4] = molecular target: Human CRP (C-reactive protein) (human) (UniProt P02741); experiment: Equilibrium binding of CRP spiked into citrate buffer to 80 ul wZQKNH resin, 2 h at room temperature; unbound CRP measured by ELISA; apparent KD
[5] = molecular target: T1, CRP; settings: rats undergoing acute myocardial infarction, human CRP injected; reference (24); cited from earlier work

| CRP detected in the supernatant after incubation with resin [2] | binding of endogenous CRP by the resin [2] | Compound | further results |
| --- | --- | --- | --- |
| No CRP was detected | appear to bind endogenous CRP | Trp-Nal-Gln-Lys-Asn-His ([dW][2Nal]QKNH) [wZQKNH, hexamer peptide ligand on Toyopearl resin; Z denotes 2′naphthylalanine] | Kd ([1]; CRP spiked into citrate buffer, read-out: apparent dissociation constant for CRP bound from buffer): 12.8 nM; Kd ([1]; CRP spiked into plasma, read-out: apparent dissociation constant for CRP bound from plasma): 370 nM |
| No CRP was detected | appear to bind endogenous CRP | Lys-Nal-Pro-Asp-Leu-His ([dK][2Nal]PDLH) [kZPDLH, hexamer peptide ligand on Toyopearl resin; Z denotes 2′naphthylalanine] |  |
|  |  | wZQKNH (SEQ ID NO: 7) (peptide) | Kd [3]: 370 nM; Kd [4]: 12.8 nM |
|  |  | C[N+](C)(C)CCOP(=O)([O-])OCCCCCCOP(=O)([O-])OCC[N+](C)(C)C [1,6-bis(phosphocholine)-hexane] | increase in infarct size and cardiac dysfunction produced by human CRP [5]: abrogate |
| No CRP was detected | appear to bind endogenous CRP | VLRPWK [hexamer peptide ligand on Toyopearl resin] |  |
